From article PMC12933331, “A Cryptic Pocket Allosterically Modulates Oligosaccharide Binding to DC-SIGN” (JACS Au, 2026)

Legend:
[1] = molecular target: T1, DC-SIGN extracellular domain (ECD), wildtype, Q9NNX6; test: dynamic light scattering; purified ECDs; tetrameric state judged from mannan affinity chromatography, DLS and DSF together; conditions: remark: other sources report otherwise
T1 chain: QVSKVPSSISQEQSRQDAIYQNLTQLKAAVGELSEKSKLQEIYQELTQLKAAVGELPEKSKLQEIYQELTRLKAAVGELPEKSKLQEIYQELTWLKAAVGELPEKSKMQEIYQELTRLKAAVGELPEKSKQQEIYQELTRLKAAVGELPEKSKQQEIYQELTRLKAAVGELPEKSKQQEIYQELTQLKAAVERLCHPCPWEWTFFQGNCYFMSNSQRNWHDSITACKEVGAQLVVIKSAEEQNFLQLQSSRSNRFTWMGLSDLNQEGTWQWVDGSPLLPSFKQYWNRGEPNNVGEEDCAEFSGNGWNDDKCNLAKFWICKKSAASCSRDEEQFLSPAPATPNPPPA

[2] = molecular target: T1, DC-SIGN extracellular domain (ECD), …; test: cryo-EM structure; DC-SIGN ECD, single particles; low resolution map, three of the four CRDs visibly resolved; conditions: remark: other sources report otherwise

stoichiometry N [1]: 4 | stoichiometry N [2]: 4
B1: DC-SIGN extracellular domain (ECD), wildtype, Q9NNX6 59-404 (receptor)
chain: QVSKVPSSISQEQSRQDAIYQNLTQLKAAVGELSEKSKLQEIYQELTQLKAAVGELPEKSKLQEIYQELTRLKAAVGELPEKSKLQEIYQELTWLKAAVGELPEKSKMQEIYQELTRLKAAVGELPEKSKQQEIYQELTRLKAAVGELPEKSKQQEIYQELTRLKAAVGELPEKSKQQEIYQELTQLKAAVERLCHPCPWEWTFFQGNCYFMSNSQRNWHDSITACKEVGAQLVVIKSAEEQNFLQLQSSRSNRFTWMGLSDLNQEGTWQWVDGSPLLPSFKQYWNRGEPNNVGEEDCAEFSGNGWNDDKCNLAKFWICKKSAASCSRDEEQFLSPAPATPNPPPA
